Assay results from PMC12501149.

Biological target: biotinylated RBD of TcsL (Paeniclostridium sordellii) (UniProt Q46342)
Assay: SPR

biotinylated RBD of TcsL (Paeniclostridium sordellii), sequence (Q46342 whole entry): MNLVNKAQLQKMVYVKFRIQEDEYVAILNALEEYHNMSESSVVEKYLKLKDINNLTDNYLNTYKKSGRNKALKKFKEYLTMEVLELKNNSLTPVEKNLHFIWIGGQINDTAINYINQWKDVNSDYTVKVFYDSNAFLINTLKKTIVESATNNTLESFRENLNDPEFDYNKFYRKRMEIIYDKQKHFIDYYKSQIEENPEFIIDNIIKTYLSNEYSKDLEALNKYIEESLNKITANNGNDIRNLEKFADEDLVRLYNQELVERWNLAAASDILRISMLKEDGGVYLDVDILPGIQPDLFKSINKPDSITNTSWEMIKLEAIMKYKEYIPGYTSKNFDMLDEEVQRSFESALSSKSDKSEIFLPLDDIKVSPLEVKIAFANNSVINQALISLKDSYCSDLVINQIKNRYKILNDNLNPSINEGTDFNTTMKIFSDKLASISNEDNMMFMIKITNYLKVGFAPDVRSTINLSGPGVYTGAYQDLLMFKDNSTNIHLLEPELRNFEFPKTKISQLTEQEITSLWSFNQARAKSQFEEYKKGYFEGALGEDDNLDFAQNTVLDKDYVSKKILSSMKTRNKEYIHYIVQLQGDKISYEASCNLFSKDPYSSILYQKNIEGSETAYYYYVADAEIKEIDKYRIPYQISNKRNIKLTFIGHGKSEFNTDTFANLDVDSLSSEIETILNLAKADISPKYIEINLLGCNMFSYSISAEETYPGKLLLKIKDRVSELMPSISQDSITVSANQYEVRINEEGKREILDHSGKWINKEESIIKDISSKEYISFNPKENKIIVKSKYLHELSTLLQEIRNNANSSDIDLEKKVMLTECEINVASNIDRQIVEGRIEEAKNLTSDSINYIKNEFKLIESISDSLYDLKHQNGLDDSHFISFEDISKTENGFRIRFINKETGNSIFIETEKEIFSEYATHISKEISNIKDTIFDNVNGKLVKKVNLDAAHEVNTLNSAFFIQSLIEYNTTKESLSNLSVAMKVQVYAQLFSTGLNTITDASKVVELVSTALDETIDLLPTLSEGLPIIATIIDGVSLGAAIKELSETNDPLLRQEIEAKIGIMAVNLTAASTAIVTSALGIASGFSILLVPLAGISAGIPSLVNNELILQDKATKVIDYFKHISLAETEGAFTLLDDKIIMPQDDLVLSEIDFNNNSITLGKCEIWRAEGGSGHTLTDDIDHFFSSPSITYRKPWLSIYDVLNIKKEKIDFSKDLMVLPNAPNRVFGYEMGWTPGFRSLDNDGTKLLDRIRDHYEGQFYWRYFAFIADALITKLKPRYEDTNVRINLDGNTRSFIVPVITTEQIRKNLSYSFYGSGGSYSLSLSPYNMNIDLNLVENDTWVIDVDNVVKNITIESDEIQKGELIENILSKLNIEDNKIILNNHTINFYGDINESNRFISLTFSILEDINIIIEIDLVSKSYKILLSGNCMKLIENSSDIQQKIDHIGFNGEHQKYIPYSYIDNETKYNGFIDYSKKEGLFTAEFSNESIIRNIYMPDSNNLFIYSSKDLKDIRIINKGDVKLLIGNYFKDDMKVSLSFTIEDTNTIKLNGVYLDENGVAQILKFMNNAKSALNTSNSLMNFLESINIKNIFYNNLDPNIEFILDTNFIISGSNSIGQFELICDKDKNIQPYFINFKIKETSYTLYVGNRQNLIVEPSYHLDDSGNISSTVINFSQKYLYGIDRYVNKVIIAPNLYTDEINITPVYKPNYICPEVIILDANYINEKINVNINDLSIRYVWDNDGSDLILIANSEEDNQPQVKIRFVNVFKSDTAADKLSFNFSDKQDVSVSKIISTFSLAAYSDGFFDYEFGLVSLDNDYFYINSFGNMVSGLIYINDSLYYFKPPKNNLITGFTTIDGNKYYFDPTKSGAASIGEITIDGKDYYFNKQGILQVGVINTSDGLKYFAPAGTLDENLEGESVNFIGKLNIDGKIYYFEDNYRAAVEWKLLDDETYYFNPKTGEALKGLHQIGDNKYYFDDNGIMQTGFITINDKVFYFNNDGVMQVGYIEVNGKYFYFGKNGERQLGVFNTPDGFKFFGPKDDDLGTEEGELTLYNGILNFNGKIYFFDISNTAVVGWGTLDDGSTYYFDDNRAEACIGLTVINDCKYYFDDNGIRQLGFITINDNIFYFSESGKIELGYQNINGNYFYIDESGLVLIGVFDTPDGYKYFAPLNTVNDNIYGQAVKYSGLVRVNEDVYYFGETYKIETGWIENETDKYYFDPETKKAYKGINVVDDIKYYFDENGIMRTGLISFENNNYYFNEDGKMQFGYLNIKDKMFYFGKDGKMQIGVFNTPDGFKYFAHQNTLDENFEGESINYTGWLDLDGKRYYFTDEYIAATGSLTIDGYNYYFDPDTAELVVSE

B1: B10 (designed binder)
chain: NEEIIKEIKQLLKEGKKASEIIELLKKNGYEEIAKDAELAALKSKDMRKAAAETAIKKLE
Kd: 0.0183 nM | koff: 0.000125 s⁻¹ | kon: 6.86e+06 M⁻¹ s⁻¹
